The values that follow come from patent publication US20210145976A1.

First the molecules themselves.
B1: SEQ ID NO 110 (designed binder)
chain: MLPAPKNLVVSRVTEDSARLSWTAPDAAFDSFFIHYHEWWEAGEAIVLTVPGSERSYDLTGLKPGTEYLVDIPGVKGGDLSVPLSAIFTT
B2: SEQ ID NO 35 (designed binder)
chain: MLPAPKNLVVSRVTEDSARLSWTAPDAAFDSFEIAYFEAIWNGEAIYLTVPGSERSYDLTGLKPGTEYQVEIRGVKGGPTSRPLFAWFTT
B3: SEQ ID NO 37 (designed binder)
chain: MLPAPKNLVVSRVTEDSARLSWTAPDAAFDSFHIIYTEEEKEGEAIYLRVPGSERSYDLTGLKPGTEYLVEIEGVKGGKRSVPLNASFTT
B4: SEQ ID NO 93 (designed binder)
chain: MLPAPKNLVVSRVTEDSARLSWTAPDAAFDSFYIGYLEPGDNGEAIVLTVPGSERSYDLTGLKPGTEYNVSIGGVKGGLGSYPLSAIFTT
B5: SEQ ID NO 36 (designed binder)
chain: MLPAPKNLVVSRVTEDSARLSWTAPDAAFDSFTITYIEWWENGEAIALSVPGSERSYDLTGLKPGTEYQVGIAGVKGGYKSYPLWALFTT
B6: SEQ ID NO 106 (designed binder)
chain: MLPAPKNLVVSRVTEDSARLSWTAPDAAFDSFTIAYEEHGLVGEAIYLRVPGSERSYDLTGLKPGTEYHVGIMGVKGGVFSSPLSAIFTT
B7: SEQ ID NO 109 (designed binder)
chain: MLPAPKNLVVSRVTEDSARLSWTAPDAAFDSFHIAYEELVTEGEAIYLRVPGSERSYDLTGLKPGTEYLVDIEGVKGGHLSSPLSAIFTT
B8: SEQ ID NO 113 (designed binder)
chain: MLPAPKNLVVSRVTEDSARLSWTAPDAAFDSFDIHYKEHSWWGEAIVLTVPGSERSYDLTGLKPGTEYIVPIPGVKGGGISRPLSAIFTT
B9: SEQ ID NO 126 (designed binder)
chain: MLPAPKNLVVSRVTEDSARLSWTAPDAAFDSFSIDYLELGESGEAIVLTVPGSERSYDLTGLKPGTEYWVYIFGVKGGYPSAPLSAIFTT
B10: SEQ ID NO 105 (designed binder)
chain: MLPAPKNLVVSRVTEDSARLSWTAPDAAFDSFGIAYYERSGAGEAIVLTVPGSERSYDLTGLKPGTEYMVYINGVKGGFVSSPLSAIFTT
B11: SEQ ID NO 95 (designed binder)
chain: MLPAPKNLVVSRVTEDSARLSWTAPDAAFDSFRISYYEWYDLGEAIVLTVPGSERSYDLTGLKPGTEYWVDIAGVKGGYYSYPLSAIFTT
B12: SEQ ID NO 119 (designed binder)
chain: MLPAPKNLVVSRVTEDSARLSWTAPDAAFDSFHIEYEETPQKGEAIFLRVPGSERSYDLTGLKPGTEYVVNIRGVKGGDLSSPLGALFTT
B13: SEQ ID NO 99 (designed binder)
chain: MLPAPKNLVVSRVTEDSARLSWTAPDAAFDSFGIQYNEFVFRGEAIVLTVPGSERSYDLTGLKPGTEYFVPISGVKGGDDSRPLSAIFTT
B14: SEQ ID NO 107 (designed binder)
chain: MLPAPKNLVVSRVTEDSARLSWTAPDAAFDSFFIQYTESHWVGEAIVLTVPGSERSYDLTGLKPGTEYAVPIEGVKGGDSSTPLSAIFTT
B15: SEQ ID NO 124 (designed binder)
chain: MLPAPKNLVVSRVTEDSARLSWTAPDAAFDSFSIDYPEFPVRGEAIVLTVPGSERSYDLTGLKPGTEYAVTIWGVKGGFTSQPLSAIFTT
B16: SEQ ID NO 88 (designed binder)
chain: MLPAPKNLVVSRVTEDSARLSWTAPDAAFDSFWIEYFEWTVGGEAIVLTVPGSERSYDLTGLKPGTEYYVSIYGVKGGWLSPPLSAIFTT
B17: SEQ ID NO 125 (designed binder)
chain: MLPAPKNLVVSRVTEDSARLSWTAPDAAFDSFVIEYFEFVGEGEAIVLTVPGSERSYDLTGLKPGTEYDVGIYGVKGGSLSSPLSAIFTT
B18: SEQ ID NO 120 (designed binder)
chain: MLPAPKNLVVSRVTEDSARLSWTAPDAAFDSFRIEYIEWWVGGEAIVLTVPGSERSYDLTGLKPGTEYWVDIKGVKGGKRSYPLSAIFTT
B19: SEQ ID NO 103 (designed binder)
chain: MLLAPKNLVVSRVTEDSARLSWTAPDAAFDSFAIEYFEYTGEGEAIVLTVPGSERSYDLTGLKPGTEYYVGIYGVKGGYLSRPLSAIFTT
B20: SEQ ID NO 104 (designed binder)
chain: MLPAPKNLVVSHVTEDSARLSWTAPDAAFDSFDIEYYELVGSGEAIVLTVPGSERSYDLTGLKPGTEYYVAIYGVKGGYLSRPLSAIFTT
B21: SEQ ID NO 114 (designed binder)
chain: MLPAPKNLVVSRVTEDSARLSWTAPDAAFDSFAIEYWEAVGSGEAIVLTVPGSERSYDLTGLKPGTEYHVYIYGVKGGYLSLPLSAIFTT
B22: SEQ ID NO 94 (designed binder)
chain: MLPAPKNLVVSRITEDSARLSWTAPDAAFDSFGIYYYEWWSTGEAIVLTVPGSERSYDLTGPKPGTEYYVKISGVKGGYRSYPLSAIFTT
B23: SEQ ID NO 111 (designed binder)
chain: MLPAPKNLVVSRVTEDSARLSWTAPDAAFDSFWIYYYESVGTGEAIVLTVPGSERSYDLTGLKPGTEYFVDISGVKVGTYSLPLSAIFTT
B24: SEQ ID NO 115 (designed binder)
chain: MLPAPKNLVVSRVTEDSARLSWTAPDAAFDSFFIGYLEPQPPGEAIVLTVPGSERSYDLTGLKPGTEYNVTIQGVKGGFPSMPLSAIFTTT
B25: SEQ ID NO 102 (designed binder)
chain: MLPAPKNLVVSRVTEDSARLSWTAPDAAFDSFSIDYDEPQPVGEAIVLTVPGSERSYDLTGLKPGTEYRVDIWGVKGGPTSGPLRATFTT
B26: SEQ ID NO 90 (designed binder)
chain: MLPAPKNLVVSRVTEDSARLSWTAPDAAFDSFTIHYWEFDPPGEAIVLTVPGSERSYDLTGLKPGTEYTVYIEGVKGGWWSKPLSAIFTT
B27: SEQ ID NO 91 (designed binder)
chain: MLPAPKNLVVSRVTEDSARLSWTAPDAAFDSFVIEYWERTQPGEAIVLTVPGSERSYDLTGLKPGTEYDVWISGVKGGKWSEPLSAIFTT
B28: SEQ ID NO 117 (designed binder)
chain: MLPAPKNLVVSRVTEDSARLSWTAPDAAFDSFTIPYGEAFNPGEAIVLTVPGSERSYDLTGLKPGTEYDVFIEGVKGGTLSWPLSAIFTT
B29: SEQ ID NO 98 (designed binder)
chain: MLPAPKNLVVSRITEDSARLSWTAPDAAFDSFDIPYGEFDTIGEAIVLTVPGSERSYDLTGLKPGTEYDVYIEGVKGGHLSWPLSAIFTT
B30: SEQ ID NO 118 (designed binder)
chain: MLPAPKNLVVSRVTEDSARLSWTAPDAAFDSFRILYGEVDPWGEAIVLTVPGSERSYDLTGLKPGTEYDVWIEGVKGGKLSWPLSAIFTT
B31: SEQ ID NO 38 (designed binder)
chain: MLPAPKNLVVSRVTEDSARLSWTAPDAAFDSFHIAYEESHTTGEAIFLRVPGSERSYDLTGLKPGTEYSVSIEGVKGGHYSPPLTAKFTT
B32: SEQ ID NO 84 (designed binder)
chain: MLPAPKNLVVSRVTEDSARLSWTAPDAAFDSFPIYYWEVFPAGEAIELDVPGSERSYDLTGLKPGTEYFVRIEGVKGGASSYPLRAEFTT
B33: SEQ ID NO 97 (designed binder)
chain: MLPAPKNLVVSRVTEDSARLSWTAPDAAFDSFFISYFEGWASGEAIHLYVPGSERSYDLTGLKPGTEYSVHIQGVKGGQPSTPLSAIFTT
B34: SEQ ID NO 85 (designed binder)
chain: MLPAPKNLVVSRVTEDSARLSWTAPDAAFDSFFIWYWEKSVDGEAIVLTVPGSERSYDLTGLKPGTEYNVGIQGVKGGTPSDPLSAIFTT
B35: SEQ ID NO 86 (designed binder)
chain: MLPAPKNLVVSRVTEDSARLSWTAPDAAFDSFIIWYAEWVNDGEAIVLTVPGSERSYDLTGLKPGTEYRVEITGVKGGTWSRPLSAIFTT
B36: SEQ ID NO 121 (designed binder)
chain: MLPAPKNLVVSRVTEDSARLSWTAPDAAFDSFSIDYPEFPVRGEAIVLTVPGSERSYDLTGPKPGTEYNVTIQGVKGGFPSMPLSAIFTT
B37: SEQ ID NO 100 (designed binder)
chain: MLPAPKNLVVSRVTEDSARLSWTAPDAAFDSFWIEYWEVVGFGEAIVLTVPGSERSYDLTGLKPGTEYWVGIYGVKGGNPSVPLSAIFTT
B38: SEQ ID NO 101 (designed binder)
chain: MLPAPKNLVVSRVTEDSARLSWTAPDAAFDSFAIDYDEPINSGEAIVLTVPGSERSYDLTGPKPGTEYEVEIYGVKGGYLSRPLSAIFTT
B39: SEQ ID NO 122 (designed binder)
chain: MLPAPKNLVVSRVTEDSARLSWTAPDAAFDSFQIPYWEQSLGGEAIVLTVPGSERSYDLTGLKPGTEYEVWIEGVKGGDLSFPLSAISTT

The test deals with human serum albumin (human) (UniProt P02768). Nature of the test: screening ELISA. In general terms: ELISA stands for enzyme-linked immunosorbent assay.
Sequence of human serum albumin (human) (P02768 25-609 limits assumed): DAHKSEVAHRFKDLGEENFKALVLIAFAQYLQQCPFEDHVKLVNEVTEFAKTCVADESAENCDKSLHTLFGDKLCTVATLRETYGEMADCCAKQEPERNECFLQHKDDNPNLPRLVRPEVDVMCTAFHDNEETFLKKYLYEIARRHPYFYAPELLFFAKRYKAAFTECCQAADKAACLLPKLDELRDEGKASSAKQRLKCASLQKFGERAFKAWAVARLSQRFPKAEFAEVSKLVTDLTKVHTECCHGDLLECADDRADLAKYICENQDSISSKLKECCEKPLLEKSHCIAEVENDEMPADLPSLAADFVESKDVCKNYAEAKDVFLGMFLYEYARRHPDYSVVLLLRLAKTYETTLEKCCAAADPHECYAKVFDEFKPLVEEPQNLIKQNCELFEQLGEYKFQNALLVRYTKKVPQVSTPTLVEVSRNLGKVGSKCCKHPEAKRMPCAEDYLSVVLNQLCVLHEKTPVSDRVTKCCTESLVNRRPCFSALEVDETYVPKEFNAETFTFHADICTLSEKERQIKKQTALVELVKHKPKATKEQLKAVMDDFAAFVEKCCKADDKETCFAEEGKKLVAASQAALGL
In turn, B1 registered an HSA of 18800.

B2 showed an HSA of 1520.

B3 showed an HSA of 2720. To B4 belongs 1650. In the case of B5, the HSA is 6160. As for B6, the figure is 1200.

On to B7, for which the HSA worked out at 1250. As for B8, the figure is 22600; as for B9, 1750. The molecule B10 gave an HSA of 1400. As for B11, the figure is 1900; as for B12, 1850.

In turn, B13 gave an HSA of 8150. B14 gave an HSA of 4050. To B15 belongs 3450; to B16, 6000; to B17, 1050. As for B18, the figure is 1850; as for B19, 1200. To B20 belongs 1700; to B21, 4200; to B22, 9900. B23 gave an HSA of 7450. To B24 belongs 3450; to B25, 13400.

B26 had an HSA of 2550. B27 showed an HSA of 1800.

Take B28: the HSA was found to be 23500. As for B29, the figure is 15500; as for B30, 18800; as for B31, 4160. In turn, B32 registered an HSA of 3850. Regarding B33, the HSA came to 2200.

On to B34, for which the HSA is 2500.

Consider B35, for which the HSA worked out at 2250.

B36 gave an HSA of 28600.

B37: the HSA was found to be 2350. As for B38, the figure is 9100. For the molecule B39, the HSA stood at 29600.
